Measurements taken from PMC11402128, “The stability of FKBP9 maintained by BiP is crucial for glioma progression” (Genes & Diseases, 2023).

Target: T1, human recombinant protein BiP (TP305859, Origene) (human, UniProt P11021 19-654)
T1 construct: also called purified BiP; source: bought: Origene (TP305859)
Assay: SPR; BScreen LB 991 label-free microarray system; proteins printed on the chip and photo-cross-linked; analyte proteins at 200, 400, 800, 1600 and 3200 nM in 10 mM HEPES pH 7.0, 3 mM EDTA, 150 mM NaCl, 0.005% P20; 5 uL/min, 10 min association, 6 min dissociation; constants by slope fitting
Details: both partners purified

T1 sequence (P11021 19-654): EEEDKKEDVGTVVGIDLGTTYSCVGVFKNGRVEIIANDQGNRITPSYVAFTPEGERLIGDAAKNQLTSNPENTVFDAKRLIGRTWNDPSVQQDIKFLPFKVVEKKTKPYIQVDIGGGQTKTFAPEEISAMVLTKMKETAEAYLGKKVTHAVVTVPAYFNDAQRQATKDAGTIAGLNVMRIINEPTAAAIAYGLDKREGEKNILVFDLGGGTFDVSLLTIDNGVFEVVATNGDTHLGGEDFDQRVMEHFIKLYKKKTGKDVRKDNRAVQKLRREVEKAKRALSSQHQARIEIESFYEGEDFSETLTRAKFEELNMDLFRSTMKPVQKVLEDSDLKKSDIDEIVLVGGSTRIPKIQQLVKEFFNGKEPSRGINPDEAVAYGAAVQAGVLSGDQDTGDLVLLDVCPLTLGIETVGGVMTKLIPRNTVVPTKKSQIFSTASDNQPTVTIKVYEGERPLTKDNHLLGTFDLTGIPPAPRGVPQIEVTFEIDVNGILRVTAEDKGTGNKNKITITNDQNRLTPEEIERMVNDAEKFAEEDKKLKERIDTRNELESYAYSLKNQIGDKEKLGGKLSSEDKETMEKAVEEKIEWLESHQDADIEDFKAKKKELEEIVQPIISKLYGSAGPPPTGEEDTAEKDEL

Kd: 271 nM
B1: human recombinant protein FKBP9 (TP322307, Origene) (natural protein, UniProt O95302 25-570, looked up)
chain: APVAGLGSDAELQIERRFVPDECPRTVRSGDFVRYHYVGTFPDGQKFDSSYDRDSTFNVFVGKGQLITGMDQALVGMCVNERRFVKIPPKLAYGNEGVSGVIPPNSVLHFDVLLMDIWNSEDQVQIHTYFKPPSCPRTIQVSDFVRYHYNGTFLDGTLFDSSHNRMKTYDTYVGIGWLIPGMDKGLLGMCVGEKRIITIPPFLAYGEDGDGKDIPGQASLVFDVALLDLHNPKDSISIENKVVPENCERISQSGDFLRYHYNGTLLDGTLFDSSYSRNRTFDTYIGQGYVIPGMDEGLLGVCIGEKRRIVVPPHLGYGEEGRGNIPGSAVLVFDIHVIDFHNPSDSISITSHYKPPDCSVLSKKGDYLKYHYNASLLDGTLLDSTWNLGKTYNIVLGSGQVVLGMDMGLREMCVGEKRTVIIPPHLGYGEAGVDGEVPGSAVLVFDIELLELVAGLPEGYMFIWNGEVSPNLFEEIDKDGNGEVLLEEFSEYIHAQVASGKGKLAPGFDAELIVKNMFTNQDRNGDGKVTAEEFKLKDQEAKHDEL
notes: also called purified FKBP9; source: bought: Origene (TP322307)
